What was measured:
[1] = test system: WT pups subjected to oxygen-induced retinopathy (OIR); assay: OIR mouse model: Western blotting and immunolabelling of retina (A1, cleaved PARP, calbindin horizontal cells); assay type: in vivo
Procedure: Western blotting analysis: Retina lysates were homogenized in RIPA buffer supplemented with protease and phosphatase inhibitors. Samples (20 μg protein) were run on 10% sodium dodecyl sulfate-polyacrylamide gel electrophoresis, transferred to nitrocellulose membrane and reacted with primary antibody followed by horseradish peroxidase-linked secondary antibody and enhanced chemiluminescence (Amersham Pharmacia). β-actin (mouse monoclonal antibody, 1:5000, Sigma-Aldrich) or GAPDH served as a loading control. The following primary antibodies were used: GFAP, PARP, A1.
Immunofluorescence labelling: PFA fixed eyeballs were washed in PBS and cryoprotected. Cryostat sections (15 μm) were permeabilized in 1% Triton (20 min) and blocked in 10% normal goat serum containing 1% BSA (one hour). Sections were then incubated overnight in primary antibodies at 4° C. On day two, the sections were incubated at room temperature for 1 hour in fluorescent conjugated secondary antibodies (Life Technologies), washed in PBS and mounted with Vectashield (Vector Laboratories)
PBS was used as vehicle control. Pups were anesthetized before treatment by intraperitoneal (i.p.) injection of ketamine/xylazine mixture. Intravitreal injections were performed using a 36-gauge NanoFil needle mounted to a 10-μL Hamilton syringe (World Precision Instruments). Two treatment strategies were employed. […]

[2] = previously reported (De Santo 2018); cited from earlier work
[3] = human, in vivo; cited from earlier work
[4] = test system: WT pups subjected to oxygen-induced retinopathy (OIR); assay: OIR mouse model: morphometric analysis of vaso-obliteration and neovascularization on lectin-labeled retinal flat mounts; assay type: in vivo
From the text: OIR mouse model: Wild type (WT) or heterozygous A1 knock out (A1^+/−) mice and their wild type (WT) littermates were subjected to oxygen induced retinopathy (OIR). Because deletion of both copies of A1 is lethal due to hyperammonemia, mice lacking 1 copy of A1 were used which is sufficient to dampen its activity (Zhang, et al., Am J Pathol, 175:891-902 (2009); Elms, et al., Diabetologia, 56:654-662 (2013); Patel, et al., Front Immunol, 4:173 (2014)). OIR was induced in newborn mice according to the protocol of Smith, et al. with some adjustments (Connor, et al., Nature Protocols, 4:1565-1573 (2009)). On P7 (postnatal day 7), mice were placed along with their dams in a hyperoxia (70% oxygen) chamber for up to 5 days, after which they were transferred back to room air on P12. The 70% oxygen concentration was used for experiments involving A1^+/− mice based on preliminary experiments showing intolerance of the A1^+/− mice to 75% oxygen treatment. Mice were sacrificed at various times and retinas were collected for analyses (FIG. 1A-1C). In all experiments, mice were compared to their littermate controls. Then data were pooled together to minimize variability between litters due to differences in litter size and weight gain (Kim, et al., Eye and Brain, 8:67-79 (2016)). These experiments were performed in accordance with the ARVO Statement for the Use of Animals in Ophthalmic and Vision Research, and were approved by the institutional animal care and use committee.
Analysis of vaso-obliteration and neovascularization: Eyeballs were fixed in 4% paraformaldehyde (PFA) overnight. Retina flat-mounts were dissected and then blocked and permeabilized in phosphate-buffered saline (PBS) containing 10% goat serum and 1% Triton X-100 (Sigma-Aldrich) for 30 minutes. Retinas were then immunolabeled with Alex594-labeled Griffonia simplicifolia isolectin B4 (1:200; Invitrogen, Carlsbad, Calif.) overnight at 4° C. Retinas were flat-mounted in mounting medium (Vectashield; Vector Laboratories, Burlingame, Calif.) and images were captured using fluorescence microscopy (Axioplan 2, Carl Zeiss Vision Inc.). Areas of central capillary dropout (vaso-obliteration, VO) and vitreoretinal neovascular tufts (neovascularization, NV) were quantified in a masked fashion using ImageJ software (NIH, Bethesda, Md.) (Connor, et al., Nature Protocols, 4:1565-1573 (2009); Patel, et al., Am J Pathol, 184:3040-3051 (2014)). High-magnification images were acquired to perform vessel sprouting analysis. Vessel sprouts were counted as previously described Patel, et al., Am J Pathol, 184:3040-3051 (2014)).
PBS was used as vehicle control. Pups were anesthetized before treatment by intraperitoneal (i.p.) injection of ketamine/xylazine mixture. Intravitreal injections were performed using a 36-gauge NanoFil needle mounted to a 10-μL Hamilton syringe (World Precision Instruments). Two treatment strategies were employed. […] The P9 time point was selected based on the fact that vaso-obliteration occurs within the first 48 hours of hyperoxia treatment (Connor, et al., Nature Protocols, 4:1565-1573 (2009); Lange, et al., Graefe's archive for clinical and experimental ophthalmology, 247:1205-1211 (2009); Gu, et al., Investigative ophthalmology & visual science, 43:496-502 (2002)).

[5] = intravitreal 6.8 ng in 0.5 μL at P12, analysis at P17

B1: PEG-A1: recombinant human arginase (rhArg) covalently attached to methoxy polyethylene glycol (mPEG-SPA; MW 5,000) via succinamide propionic acid (SPA) linker (protein, UniProt P05089 1-322, looked up)
Arginase-1: MSAKSRTIGIIGAPFSKGQPRGGVEEGPTVLRKAGLLEKLKEQECDVKDYGDLPFADIPNDSPFQIVKNPRSVGKASEQLAGKVAEVKKNGRISLVLGGDHSLAIGSISGHARVHPDLGVIWVDAHTDINTPLTTTSGNLHGQPVSFLLKELKGKIPDVPGFSWVTPCISAKDIVYIGLRDVDPGEHYILKTLGIKYFSMTEVDRLGIGKVMEETLSYLLGRKKRPIHLSFDVDGLDPSFTPATGTPVVGGLTYREGLYITEEIYKTGLLSGLDIMEVNPSLGKTPEEVTRTVNTAVAITLACFGLAREGNHKPIDYLNPPK
modifications: mPEG-SPA 5 kDa conjugate
notes: recombinant human arginase (rhArg) covalently attached to methoxy polyethylene glycol (mPEG-SPA; MW 5,000) via succinamide propionic acid (SPA) linker
OIR-induced calbindin-positive horizontal cell loss ([1]; P17, compared to vehicle treatment): significantly rescued | cleavage of the pro-apoptotic marker PARP (Western blot) ([1]; P17 OIR retinal lysates): significantly reduced | CNS penetration [2]: poor CNS penetration | safety and tolerability in humans [3]: safe and well-tolerated | hyperoxia-induced vaso-obliteration (capillary dropout area) ([4]; intravitreal 6.8 ng in 0.5 μL at P7, hyperoxia, P9): does not affect | avascular area [4, 5]: avascular area was reduced | endothelial tip cells (vessel sprouts) per field of view [4, 5]: two-fold increase | neovascular tufts (pathological neovascularization) [4, 5]: reduced neovascular tufts | lectin-positive vitreal macrophages after OIR ([4]; intravitreal PEG-A1, vs vehicle): increased
